Source: publication PMC5087439, “One Step Assembly of Thin Films of Carbon Nanotubes on Screen Printed Interface for Electrochemical Aptasensing of Breast Cancer Biomarker”

Target: MUC1 (mucine) (UniProt P15941 24-1097)
Test: electrochemical impedance spectroscopy (aptamer immobilized on electrode); 2 mM [Fe(CN)6]4-/3- redox probe; 1 mM Mg2+; observed (apparent) Kd, stated as about 0.1 U/mL; Binding buffer pH 7.4: 1 mM MgCl2, 140 mM NaCl, 2.7 mM KCl, 0.1 mM Na2HPO4, 1.8 mM KH2PO4; 45 min incubation; temperature not stated

Sequence of MUC1 (mucine) (P15941 24-1097): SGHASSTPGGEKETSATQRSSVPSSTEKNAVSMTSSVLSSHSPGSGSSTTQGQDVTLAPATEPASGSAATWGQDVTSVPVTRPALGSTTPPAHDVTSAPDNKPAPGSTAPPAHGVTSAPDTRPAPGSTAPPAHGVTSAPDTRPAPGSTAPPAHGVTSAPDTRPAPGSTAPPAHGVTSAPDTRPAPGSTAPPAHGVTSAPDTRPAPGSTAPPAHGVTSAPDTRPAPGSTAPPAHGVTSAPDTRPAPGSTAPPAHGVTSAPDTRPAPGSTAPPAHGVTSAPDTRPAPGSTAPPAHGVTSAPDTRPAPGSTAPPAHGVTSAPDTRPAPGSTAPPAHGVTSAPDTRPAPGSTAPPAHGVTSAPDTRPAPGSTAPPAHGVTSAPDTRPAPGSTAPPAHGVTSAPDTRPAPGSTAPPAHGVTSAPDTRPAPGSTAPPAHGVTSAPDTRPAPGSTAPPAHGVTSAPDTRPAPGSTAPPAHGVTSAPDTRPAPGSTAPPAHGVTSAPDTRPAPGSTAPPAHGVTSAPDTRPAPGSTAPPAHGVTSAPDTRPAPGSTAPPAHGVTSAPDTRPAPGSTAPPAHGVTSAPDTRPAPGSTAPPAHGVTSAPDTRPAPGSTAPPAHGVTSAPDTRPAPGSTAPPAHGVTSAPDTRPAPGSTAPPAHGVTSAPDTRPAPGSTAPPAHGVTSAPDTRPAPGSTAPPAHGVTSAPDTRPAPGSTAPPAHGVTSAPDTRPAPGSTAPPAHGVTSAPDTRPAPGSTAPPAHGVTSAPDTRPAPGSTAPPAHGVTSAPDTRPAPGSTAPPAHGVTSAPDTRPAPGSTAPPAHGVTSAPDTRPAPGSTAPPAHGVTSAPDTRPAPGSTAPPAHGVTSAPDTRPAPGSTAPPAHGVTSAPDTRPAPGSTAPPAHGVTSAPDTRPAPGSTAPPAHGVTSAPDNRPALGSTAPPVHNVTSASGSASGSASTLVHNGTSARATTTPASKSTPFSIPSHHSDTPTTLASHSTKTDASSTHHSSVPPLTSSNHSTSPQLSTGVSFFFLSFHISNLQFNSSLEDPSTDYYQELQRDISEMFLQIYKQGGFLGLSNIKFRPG

B1: MUC1 aptamer (ssDNA)
DNA: GCAGTTGATCCTTTGGATACCCTGG
modifications: 3'-NH2
Work on B1 yielded a Kd of 630 nM.
